Laboratory results from ChEMBL document CHEMBL4196070, “Development of Piperazinediones as dual inhibitor for treatment of Alzheimer's disease” (Eur J Med Chem, 2018).

Legend:
[1] = compound: O=C1C(Cc2ccccc2)N(S(=O)(=O)c2ccc(Cl)cc2)C(=O)C(Cc2ccccc2)N1S(=O)(=O)c1ccc(Cl)cc1; test: (§1) Competitive inhibition of human MMP2 assessed as Km for substrate at 60 nM preincubated for 60 mins followed by Mca-Pro-Leu-Gly-Leu-Dpa-Ala-Arg-NH substrate addition by Lineweaver-Burk plot analysis (reference value: 10 to 25 nM)
[2] = compound: O=C1C(c2ccccc2)N(S(=O)(=O)c2ccc(Cl)cc2)C(=O)C(c2ccccc2)N1S(=O)(=O)c1ccc(Cl)cc1; test: as §1
[3] = compound: O=C1C(Cc2ccccc2)N(S(=O)(=O)c2ccc(Cl)cc2)C(=O)C(Cc2ccccc2)N1S(=O)(=O)c1ccc(Cl)cc1; test: (§2) Competitive inhibition of human MMP2 assessed as Km for substrate at 100 nM preincubated for 60 mins followed by Mca-Pro-Leu-Gly-Leu-Dpa-Ala-Arg-NH substrate addition by Lineweaver-Burk plot analysis (reference value: 10 to 25 nM)
[4] = compound: O=C1C(c2ccccc2)N(S(=O)(=O)c2ccc(Cl)cc2)C(=O)C(c2ccccc2)N1S(=O)(=O)c1ccc(Cl)cc1; test: as §2
[5] = compound: O=C1C(Cc2ccccc2)N(S(=O)(=O)c2ccc(Cl)cc2)C(=O)C(Cc2ccccc2)N1S(=O)(=O)c1ccc(Cl)cc1; test: (§3) Competitive inhibition of human MMP2 assessed as Vmax for substrate at 60 nM preincubated for 60 mins followed by Mca-Pro-Leu-Gly-Leu-Dpa-Ala-Arg-NH substrate addition by Lineweaver-Burk plot analysis (reference value: 3.4 to 3.6 nM/min)
[6] = compound: O=C1C(c2ccccc2)N(S(=O)(=O)c2ccc(Cl)cc2)C(=O)C(c2ccccc2)N1S(=O)(=O)c1ccc(Cl)cc1; test: as §3
[7] = compound: O=C1C(Cc2ccccc2)N(S(=O)(=O)c2ccc(Cl)cc2)C(=O)C(Cc2ccccc2)N1S(=O)(=O)c1ccc(Cl)cc1; test: (§4) Competitive inhibition of human MMP2 assessed as Vmax for substrate at 100 nM preincubated for 60 mins followed by Mca-Pro-Leu-Gly-Leu-Dpa-Ala-Arg-NH substrate addition by Lineweaver-Burk plot analysis (reference value: 3.4 to 3.6 nM/min)
[8] = compound: O=C1C(c2ccccc2)N(S(=O)(=O)c2ccc(Cl)cc2)C(=O)C(c2ccccc2)N1S(=O)(=O)c1ccc(Cl)cc1; test: as §4

B1: 72 kDa type IV collagenase (Homo sapiens), P08253 (protein)
chain: MEALMARGALTGPLRALCLLGCLLSHAAAAPSPIIKFPGDVAPKTDKELAVQYLNTFYGCPKESCNLFVLKDTLKKMQKFFGLPQTGDLDQNTIETMRKPRCGNPDVANYNFFPRKPKWDKNQITYRIIGYTPDLDPETVDDAFARAFQVWSDVTPLRFSRIHDGEADIMINFGRWEHGDGYPFDGKDGLLAHAFAPGTGVGGDSHFDDDELWTLGEGQVVRVKYGNADGEYCKFPFLFNGKEYNSCTDTGRSDGFLWCSTTYNFEKDGKYGFCPHEALFTMGGNAEGQPCKFPFRFQGTSYDSCTTEGRTDGYRWCGTTEDYDRDKKYGFCPETAMSTVGGNSEGAPCVFPFTFLGNKYESCTSAGRSDGKMWCATTANYDDDRKWGFCPDQGYSLFLVAAHEFGHAMGLEHSQDPGALMAPIYTYTKNFRLSQDDIKGIQELYGASPDIDLGTGPTPTLGPVTPEICKQDIVFDGIAQIRGEIFFFKDRFIWRTVTPRDKPMGPLLVATFWPELPEKIDAVYEAPQEEKAVFFAGNEYWIYSASTLERGYPKPLTSLGLPPDVQRVDAAFNWSKNKKTYIFAGDKFWRYNEVKKKMDPGFPKLIADAWNAIPDNLDAVVDLQGGGHSYFFKGAYYLKLENQSLKSVKFGSIKSDWLGC
With B1 the Km [1] was 0.024 µM, the Km [2] was 0.036 µM and the Km [3] was 0.048 µM. It also gave a Km [4] of 0.07 µM, a Vmax [5] of 3.6 nM/min and a Vmax [6] of 3.4 nM/min. For the same protein, the Vmax [7] was 3.6 nM/min and the Vmax [8] was 3.4 nM/min.
